These results are taken from patent publication US20200199213A1 (Eli Lilly, published 2020).

Read-outs that look alike come from different tables or passages of the source.

Assay in all cases: SPR, Biacore T200; Ab captured on Human Fab Binder, complex injected; pH 7.4, 25 C
Background: SPR reads the build-up and loss of mass on a sensor chip optically.

Assay [1] deals with T1, cynomolgus ANGPTL3/8 complex (cynomolgus, UniProt A0A2K5UDC5 17-460; A0A2K5WWS3 22-198).
T1 construct: also called cyno ANGPTL3/8
T1 sequence 1: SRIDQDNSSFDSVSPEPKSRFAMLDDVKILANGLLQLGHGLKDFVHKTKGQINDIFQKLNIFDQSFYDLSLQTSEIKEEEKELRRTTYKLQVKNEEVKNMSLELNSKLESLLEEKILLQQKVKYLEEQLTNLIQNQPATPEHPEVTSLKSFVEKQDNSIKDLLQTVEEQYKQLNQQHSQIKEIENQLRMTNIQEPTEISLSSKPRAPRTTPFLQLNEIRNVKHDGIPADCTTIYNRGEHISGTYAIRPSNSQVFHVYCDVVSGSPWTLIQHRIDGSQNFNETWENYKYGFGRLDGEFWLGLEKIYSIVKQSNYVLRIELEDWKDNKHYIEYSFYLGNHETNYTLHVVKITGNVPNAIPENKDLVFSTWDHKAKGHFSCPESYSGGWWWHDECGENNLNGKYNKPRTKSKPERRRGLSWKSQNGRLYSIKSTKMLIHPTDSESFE
T1 sequence 2: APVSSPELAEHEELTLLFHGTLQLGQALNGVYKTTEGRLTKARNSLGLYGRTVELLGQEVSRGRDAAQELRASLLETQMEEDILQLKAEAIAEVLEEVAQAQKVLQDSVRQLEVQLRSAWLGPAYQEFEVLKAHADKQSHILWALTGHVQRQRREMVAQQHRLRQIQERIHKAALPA

The target of assay [2] is T2, human ANGPTL3/8 complex (human, UniProt Q9Y5C1 17-460; Q6UXH0 22-198, limits assumed).
T2 construct: also called hANGPTL3/8 complex; ANGTPL3/8 complex
T2 sequence 1: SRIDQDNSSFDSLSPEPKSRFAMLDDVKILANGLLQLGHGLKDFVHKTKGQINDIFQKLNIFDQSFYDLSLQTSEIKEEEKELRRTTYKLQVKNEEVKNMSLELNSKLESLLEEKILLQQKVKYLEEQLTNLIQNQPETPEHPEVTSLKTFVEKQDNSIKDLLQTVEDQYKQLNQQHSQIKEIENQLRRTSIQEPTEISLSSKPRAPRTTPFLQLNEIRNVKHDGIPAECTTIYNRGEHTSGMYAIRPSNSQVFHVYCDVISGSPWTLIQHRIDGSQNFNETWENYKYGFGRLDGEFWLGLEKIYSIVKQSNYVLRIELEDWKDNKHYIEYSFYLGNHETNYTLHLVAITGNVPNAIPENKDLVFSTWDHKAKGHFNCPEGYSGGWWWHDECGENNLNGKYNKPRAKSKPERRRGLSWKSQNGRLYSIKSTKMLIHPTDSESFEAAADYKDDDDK
T2 sequence 2: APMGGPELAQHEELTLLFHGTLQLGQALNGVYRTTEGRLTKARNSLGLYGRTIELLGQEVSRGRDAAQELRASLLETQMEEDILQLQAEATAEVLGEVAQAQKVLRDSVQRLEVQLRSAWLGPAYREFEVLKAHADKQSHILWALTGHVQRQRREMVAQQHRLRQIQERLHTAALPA

The target of assay [3] is T1, cynomolgus ANGPTL3/8 complex. This is another data set of the same source.
Assay [4] deals with T2, human ANGPTL3/8 complex. The source holds these as a separate data set.
In assay [5] the target is T3, mouse ANGPTL3/8 complex (mouse, UniProt Q9R182 17-455; Q8R1L8 16-198, limits assumed).
T3 sequence (looked up) 1: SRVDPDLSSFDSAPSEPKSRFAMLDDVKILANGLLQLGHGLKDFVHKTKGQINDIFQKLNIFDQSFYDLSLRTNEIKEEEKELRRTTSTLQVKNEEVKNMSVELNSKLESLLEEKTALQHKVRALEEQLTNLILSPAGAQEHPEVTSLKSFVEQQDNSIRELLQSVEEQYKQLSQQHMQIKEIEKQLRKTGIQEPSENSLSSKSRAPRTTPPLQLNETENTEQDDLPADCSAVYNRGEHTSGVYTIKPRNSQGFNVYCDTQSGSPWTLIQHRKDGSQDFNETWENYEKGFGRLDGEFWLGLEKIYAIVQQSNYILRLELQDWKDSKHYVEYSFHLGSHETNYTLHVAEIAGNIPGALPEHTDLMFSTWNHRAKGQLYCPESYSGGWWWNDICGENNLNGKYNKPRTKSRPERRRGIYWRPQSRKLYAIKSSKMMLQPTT
T3 sequence (looked up) 2: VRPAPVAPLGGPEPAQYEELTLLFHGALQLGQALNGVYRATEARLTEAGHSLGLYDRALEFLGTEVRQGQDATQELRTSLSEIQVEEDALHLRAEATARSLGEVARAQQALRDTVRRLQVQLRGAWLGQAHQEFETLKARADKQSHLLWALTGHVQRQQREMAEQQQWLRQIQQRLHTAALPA

Assay [6] has as its target T1, cynomolgus ANGPTL3/8 complex. The source holds these as a separate data set.
Assay [7] deals with T2, human ANGPTL3/8 complex. The source holds these as a separate data set.
In assay [8] the target is T3, mouse ANGPTL3/8 complex. The source holds these as a separate data set.

B1: anti-ANGPTL3/8 complex Ab having a LC of SEQ ID NO:5 and a HC of SEQ ID NO:6 (antibody, human IgG4 S228P, kappa, F234A L235A, V domains shown)
VH: QVTLKESGPTLVKPTQTLTLTCTFSGFSLSISGVGVGWIRQPPGKALEWLALIYRNDDKRYSPSLKSRLTITKDTSKNQVVLTLTNMDPVDTATYYCARTYSSGWYGNWFDPWGQGTLVTVSS
VL: DIVMTQTPLSLPVTPGEPASISCRSSQSLLDSDDGNTYLDWYLQKPGQSPQLLIYMLSYRASGVPDRFSGSGSGTDFTLKISRVEAEDVGIYYCMQRIEFPLTFGGGTKVEIKR
notes: In the ELISA assays tested as IgG from CHO supernatants; also called the Ab
In assay [1], B1 had a dissociation constant Kd of 0.213 nM, a koff of 9.91e-05 s⁻¹ and a kon of 491000 M⁻¹ s⁻¹. In the assay with human ANGPTL3/8 complex [2], this molecule had a Kd of 0.135 nM, a koff of 6.31e-05 s⁻¹ and a kon of 477000 M⁻¹ s⁻¹.

B2: Ab with LC variant having a E99Q mutation (SEQ ID NO:25) and a HC of SEQ ID NO:6 (antibody, human IgG4 S228P, kappa, F234A L235A, V domains shown)
VH: QVTLKESGPTLVKPTQTLTLTCTFSGFSLSISGVGVGWIRQPPGKALEWLALIYRNDDKRYSPSLKSRLTITKDTSKNQVVLTLTNMDPVDTATYYCARTYSSGWYGNWFDPWGQGTLVTVSS
VL: DIVMTQTPLSLPVTPGEPASISCRSSQSLLDSDDGNTYLDWYLQKPGQSPQLLIYMLSYRASGVPDRFSGSGSGTDFTLKISRVEAEDVGIYYCMQRIQFPLTFGGGTKVEIKR
notes: also called E99Q Variant Ab; E99Q Ab
In assay [3], B2 displayed a Kd of 0.116 nM, a koff of 7.23e-05 s⁻¹ and a kon of 620000 M⁻¹ s⁻¹. In the assay with human ANGPTL3/8 complex [4], this molecule showed a Kd of 0.0484 nM, a koff of 3.26e-05 s⁻¹ and a kon of 674000 M⁻¹ s⁻¹. In the assay with mouse ANGPTL3/8 complex [5], this molecule returned a Kd of 0.254 nM, a koff of 0.000151 s⁻¹ and a kon of 596000 M⁻¹ s⁻¹.

B3: Ab with LC variant having a D31S mutation (SEQ ID NO:21) and a HC of SEQ ID NO:6 (antibody, human IgG4 S228P, kappa, F234A L235A, V domains shown)
VH: QVTLKESGPTLVKPTQTLTLTCTFSGFSLSISGVGVGWIRQPPGKALEWLALIYRNDDKRYSPSLKSRLTITKDTSKNQVVLTLTNMDPVDTATYYCARTYSSGWYGNWFDPWGQGTLVTVSS
VL: DIVMTQTPLSLPVTPGEPASISCRSSQSLLSSDDGNTYLDWYLQKPGQSPQLLIYMLSYRASGVPDRFSGSGSGTDFTLKISRVEAEDVGIYYCMQRIEFPLTFGGGTKVEIKR
notes: also called D31S Variant Ab; D31S Ab
For B3, the results for the Kd (in assay [6]; with human ANGPTL3/8 complex [7]; in the assay with mouse ANGPTL3/8 complex [8]) were 0.365 nM, 0.116 nM and 0.218 nM, respectively. For the same molecule, the koff turned out to be 0.000168 s⁻¹ in assay [6], 5.75e-05 s⁻¹ with human ANGPTL3/8 complex [7] and 0.000108 s⁻¹ with mouse ANGPTL3/8 complex [8]. The kon in assay [6] was 462000 M⁻¹ s⁻¹; with human ANGPTL3/8 complex [7] it was 497000 M⁻¹ s⁻¹; with mouse ANGPTL3/8 complex [8], 496000 M⁻¹ s⁻¹.

In general, Kd refers to the constant that tells how readily two partners part at equilibrium. Lower therefore signals tighter binding. Broadly, the koff is a measure of how fast the partners let go of each other. The kon is the second-order rate constant of association. High values mean fast association, low ones slow association.
